From the supplement of paper PMC6757056
± gives the standard deviation of the averaged measurements.

B1: library; a variant is named by its letters at N, in order (parent)
chain: GCUGUCACCGGUGUAUUACCCUAGUGGUCGACCGGUCUGAUGAGUCUNNNNNNAGACGAAACAGC

How the values were obtained:
hypoxanthine [1] = variants of: B1; test: FACS-Seq fitted mean relative fluorescence mCherry/BFP without ligand (log10 relative fluorescence); ligand: hypoxanthine (xanthine aptamer); higher = higher reporter protein expression; details: HEK293T, ligand present: no
In short: (§1)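 To measure fluorescence, a normal distribution was fitted to read counts across sorted bins. The reporter libraries were HEK293T cells transduced by lentivirus with mCherry under ribozyme-switch control and an EF1α-BFP marker, enriched and then kept with or without ligand for 48 h. Sorting used 6 mCherry/BFP bins, and bin genomic DNA was PCR-amplified and sequenced on MiSeq. Fitted means of log10(mCherry/BFP) were scaled to five spiked-in control ribozymes.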

hypoxanthine [2] = variants of: B1; test: normalized RNA/DNA level with ligand (relative to sTRSVctl = 100) (log10 (% of sTRSVctl)); ligand: hypoxanthine (xanthine aptamer); higher = less ribozyme self-cleavage, higher mRNA level; details: ligand concentration (+) RNA-Seq: 5 mM, HEK293T, reporter: mCherry (pCS4076), ligand present: yes
In short: (§2)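 Ribozyme switch library plasmids linked to reporters were introduced into HEK293T cells at 4 µg per 6-well well, with ligand, if any, added 1 h before. Total RNA was extracted with EDTA 72 h later, reverse-transcribed, amplified, barcoded and sequenced. RNA level was computed from RNA over DNA reads relative to a spiked-in non-cleaving sequence or the top sequences, then scaled and log-transformed. The top set was 25 sequences, values were ×100 and log10, and the cutoff was ≥100 DNA reads.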

hypoxanthine [3] = variants of: B1; test: normalized RNA/DNA level without ligand (relative to sTRSVctl = 100) (log10 (% of sTRSVctl)); ligand: hypoxanthine (xanthine aptamer); higher = less ribozyme self-cleavage, higher mRNA level; details: HEK293T, reporter: mCherry (pCS4076), ligand present: no
In short: as §2

hypoxanthine [4] = variants of: B1; test: FACS-Seq fitted mean relative fluorescence mCherry/BFP with ligand (log10 relative fluorescence); ligand: hypoxanthine (xanthine aptamer); ligand concentration (+) FACS-Seq: 5 mM; higher = higher reporter protein expression; details: HEK293T, ligand present: yes
In short: as §1

Variant	FACS-Seq fitted mean (log10) (hypoxanthine [1])	normalized RNA/DNA level with ligand (log10) (hypoxanthine [2])	normalized RNA/DNA level without ligand (log10) (hypoxanthine [3])	FACS-Seq fitted mean (log10) (hypoxanthine [4])
GCUGUCACCGGUGUAUUACCCUAGUGGUCGACCGGUCUGAUGAGUCUUUAGGCAGACGAAACAGC [UUAGGC]	0.15 ± 0.015	1.95 ± 0.05	1.887 ± 0.014	0.181 ± 0.0045
GCUGUCACCGGUGUAUUACCCUAGUGGUCGACCGGUCUGAUGAGUCUUUAGGGAGACGAAACAGC [UUAGGG]	0.351 ± 0.012	1.87 ± 0.037	1.69 ± 0.017	0.655 ± 0.028
GCUGUCACCGGUGUAUUACCCUAGUGGUCGACCGGUCUGAUGAGUCUGUAGGGAGACGAAACAGC [GUAGGG]	0.143 ± 0.034	1.86 ± 0.055	1.49 ± 0.037	0.5302 ± 0.0037
GCUGUCACCGGUGUAUUACCCUAGUGGUCGACCGGUCUGAUGAGUCUGUAGGCAGACGAAACAGC [GUAGGC]	0.126 ± 0.003	1.87 ± 0.043	1.38 ± 0.043	0.611 ± 0.02
GCUGUCACCGGUGUAUUACCCUAGUGGUCGACCGGUCUGAUGAGUCUGUAGGUAGACGAAACAGC [GUAGGU]	0.5146 ± 0.0047	1.95 ± 0.02	1.79 ± 0.034	0.578 ± 0.11
GCUGUCACCGGUGUAUUACCCUAGUGGUCGACCGGUCUGAUGAGUCUAUAGCGAGACGAAACAGC [AUAGCG]	-0.227 ± 0.035	1.87 ± 0.045	1.36 ± 0.057	-0.0558 ± 0.023
GCUGUCACCGGUGUAUUACCCUAGUGGUCGACCGGUCUGAUGAGUCUGUAGCUAGACGAAACAGC [GUAGCU]	-0.279 ± 0.094	1.98 ± 0.03	1.88 ± 0.063	-0.197 ± 0.0065
GCUGUCACCGGUGUAUUACCCUAGUGGUCGACCGGUCUGAUGAGUCUAUAGGAAGACGAAACAGC [AUAGGA]	0.382 ± 0.011	1.9 ± 0.042	1.658 ± 0.015	0.529 ± 0.017
GCUGUCACCGGUGUAUUACCCUAGUGGUCGACCGGUCUGAUGAGUCUAUAGGGAGACGAAACAGC [AUAGGG]	0.023 ± 0.0025	1.807 ± 0.011	1.38 ± 0.0023	0.46 ± 0.053
GCUGUCACCGGUGUAUUACCCUAGUGGUCGACCGGUCUGAUGAGUCUCUAGGAAGACGAAACAGC [CUAGGA]	0.7992 ± 0.0063	1.938 ± 0.0084	1.859 ± 0.018	0.697 ± 0.022
GCUGUCACCGGUGUAUUACCCUAGUGGUCGACCGGUCUGAUGAGUCUCUAGGGAGACGAAACAGC [CUAGGG]	0.0497 ± 0.042	1.89 ± 0.035	1.53 ± 0.028	0.294 ± 0.039
